Molecular target: CNTF receptor expressed on TF-1.CN5a.1 (ATCC CRL-2512) cells (UniProt P26992)
Assay: cell-based or functional assay

UniProt P26992, sequence (P26992 23-342 limits assumed): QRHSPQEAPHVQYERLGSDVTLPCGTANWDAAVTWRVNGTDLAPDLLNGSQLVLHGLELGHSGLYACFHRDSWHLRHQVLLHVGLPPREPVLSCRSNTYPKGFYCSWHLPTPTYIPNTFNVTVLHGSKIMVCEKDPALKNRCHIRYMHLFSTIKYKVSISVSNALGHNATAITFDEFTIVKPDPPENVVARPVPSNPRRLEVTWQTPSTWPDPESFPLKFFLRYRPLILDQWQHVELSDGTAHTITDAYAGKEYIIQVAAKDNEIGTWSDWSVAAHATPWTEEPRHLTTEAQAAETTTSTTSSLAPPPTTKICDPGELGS

## CNTF control protein (Life Technologies) (ligand)
  EC50, TF-1.CN5a.1 cell proliferation: 0.11 pM
